T1: human ANGPTL3 protein (SEQ ID No. 19) (human, UniProt Q9Y5C1 18-460, limits assumed)
T1 construct: also called ANGPTL3-FLD; protein (immunogen)
T1 sequence: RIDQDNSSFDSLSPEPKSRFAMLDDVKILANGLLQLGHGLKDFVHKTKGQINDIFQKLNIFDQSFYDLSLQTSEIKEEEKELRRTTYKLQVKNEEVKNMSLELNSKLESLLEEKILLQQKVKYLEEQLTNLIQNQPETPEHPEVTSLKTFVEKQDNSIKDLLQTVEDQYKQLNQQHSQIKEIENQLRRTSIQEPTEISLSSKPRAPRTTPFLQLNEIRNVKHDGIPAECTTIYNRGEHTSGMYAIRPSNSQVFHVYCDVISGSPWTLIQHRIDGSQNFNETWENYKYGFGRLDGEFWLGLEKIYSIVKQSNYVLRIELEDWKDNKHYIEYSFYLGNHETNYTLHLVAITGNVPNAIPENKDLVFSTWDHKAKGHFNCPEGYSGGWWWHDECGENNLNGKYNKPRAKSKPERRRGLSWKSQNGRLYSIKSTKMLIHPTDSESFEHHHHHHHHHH

B1: anti-ANGPTL3 monoclonal antibody (prepared in Example 2) (antibody, IgG1, V domains shown)
VH: QVQLKESGPGLVAPSQSLSITCTVSGFSLTTYGVSWVRQPPGKGLEWLGVIWGDGNTNYHSALISRLSISKDNSKSQVFLKLNSLQTDDTATYYCAKGGPYGNYVPFDYWGQGTTLTVSS
VL: DIVLTQSPASLAVSLGQRATISCRASESVDSYGNSFMHWYQQKPGQPPKLLIYRASNLESGIPARFSGSGSRTDFTLTINPVEADDVATYYCQQSDEEPPTFGGGTNLEIK
notes: Recombinant antibody expressed transiently in ExpiCHO-S cells; also called anti-ANGPTL3-FLD mAb; mAb
B2: ANGPTL3-FLD-biotin (ligand)
chain: T1 sequence
modifications: biotin-labeled (sites not given)
notes: also called ANGPTL3-Biotin; Biotin-ANGPTL3-FLD

Tests used:
[1] = molecular target: human ANGPTL3 protein (SEQ ID No. 19) (human) (UniProt Q9Y5C1); test: indirect ELISA, negative control supernatant, column A (taken as plate-coated ANGPTL3 of SEQ ID No. 19)
[2] = molecular target: T1, human ANGPTL3 protein (SEQ ID No. 19); test: SPR, Biacore T200, ANGPTL3 amine-coupled on a CM5 chip (852 RU), antibody injected at 6.25-800 nM, 25 °C, HBS-EP
Experimental: Angptl3 was immobilized on a CM5 sensor chip (Biacore T200, BR18010468 (GE Healthercare)) at 25° C. with HBS-EP as a running buffer (10 mM HEPES, 150 mM NaCl, 3 mM EDTA, 0.05% P20, pH 7.4). Flow cells 1 and 4 were activated on the surface of the sensor chip with fresh and mixed NHS (50 mmol/L) and EDC (200 mmol/L) for 420 s (10 μL/min). Then, Angptl3 diluted in 10 mmol/L NaAC (pH 5.0) waccording tojected into the flow cell 4 to achieve binding of about 852 Response Unit. In addition, Fc1 was set to blank. After the amine coupling reaction, 1 mol/L ethanolamine hydrochloride (pH 8.5) waccording tojected for 420 s to block the remaining active coupling sites on the chip surface.
The detection was carried out at 25° C. with HBS-EP as a running buffer. The anti-ANGPTL3 monoclonal antibody (prepared in Example 2) waccording tojected onto the surfaces of flow cells 1, 2, 3, and 4 as an association stage, and then the running buffer waccording tojected as a dissociation stage.
All data were processed using Biacore T200 evaluation software version 3.1. The flow cell 1 was used as a double reference for the subtractive response unit. For the detection results of the affinity of the anti-ANGPTL3 antibody to the ANGPTL3 protein, refer to FIG. 2.

ANGPTL3-FLD-biotin = molecular target: B2; test: competitive ELISA: antibody titrated in 0.16 µg/mL ANGPTL3-FLD-biotin, blocking its binding to plate-coated integrin αvβ3
Text: (§1) Integrin αvβ3 is a key receptor for ANGPTL3-FLD to act on podocytes and mediate podocyte damage. Therefore, in order to evaluate the biological activity of the anti-ANGPTL3 monoclonal antibody, a competitive ELISA experiment was designed to evaluate the activity of the anti-ANGPTL3 monoclonal antibody blocking the interaction between ANGPTL3-FLD and integrin αvβ3. In the competitive experiment of the anti-ANGPTL3 monoclonal antibody blocking the interaction between ANGPTL3-FLD and integrin αvβ3, ANGPTL3-FLD was biotin-labeled, and the lowest saturated concentration of ANGPTL3-FLD-biotin binding to integrin αvβ3 was determined as 0.16 μg/mL by ELISA (as shown in FIG. 3A). The anti-ANGPTL3 monoclonal antibody was serially diluted with 0.16 μg/mL ANGPTL3-FLD-biotin solution as a diluent to obtain a series of concentrations. Theoretically, ANGPTL3-FLD-biotin can saturate integrin αvβ3 on a solid support in the absence of monoclonal antibody. However, when the epitope of ANGPTL3-FLD recognized by the monoclonal antibody overlaps with the epitope of ANGPTL3-FLD binding to integrin αvβ3, the antibody may compete with integrin αvβ3 for binding to ANGPTL3-FLD-biotin, so that ANGPTL3-FLD-biotin cannot bind to integrin αvβ3 on the solid support.
2. Detect a Half-Maximal Inhibitory Concentration of Anti-ANGPTL3-FLD mAb [0098] […]

[3] = molecular target: T2, Integrin αvβ3 recombinant protein (R&D, 3050-AV-050) (UniProt P06756 31-992; P05106 27-718); test: ELISA: integrin αvβ3 coated at 1 µg/mL, ANGPTL3-FLD-biotin titrated, detected with peroxidase-labeled streptavidin, OD450
T2 construct: Bought heterodimer
T2 sequence (P06756 31-992, chain 1 of 2): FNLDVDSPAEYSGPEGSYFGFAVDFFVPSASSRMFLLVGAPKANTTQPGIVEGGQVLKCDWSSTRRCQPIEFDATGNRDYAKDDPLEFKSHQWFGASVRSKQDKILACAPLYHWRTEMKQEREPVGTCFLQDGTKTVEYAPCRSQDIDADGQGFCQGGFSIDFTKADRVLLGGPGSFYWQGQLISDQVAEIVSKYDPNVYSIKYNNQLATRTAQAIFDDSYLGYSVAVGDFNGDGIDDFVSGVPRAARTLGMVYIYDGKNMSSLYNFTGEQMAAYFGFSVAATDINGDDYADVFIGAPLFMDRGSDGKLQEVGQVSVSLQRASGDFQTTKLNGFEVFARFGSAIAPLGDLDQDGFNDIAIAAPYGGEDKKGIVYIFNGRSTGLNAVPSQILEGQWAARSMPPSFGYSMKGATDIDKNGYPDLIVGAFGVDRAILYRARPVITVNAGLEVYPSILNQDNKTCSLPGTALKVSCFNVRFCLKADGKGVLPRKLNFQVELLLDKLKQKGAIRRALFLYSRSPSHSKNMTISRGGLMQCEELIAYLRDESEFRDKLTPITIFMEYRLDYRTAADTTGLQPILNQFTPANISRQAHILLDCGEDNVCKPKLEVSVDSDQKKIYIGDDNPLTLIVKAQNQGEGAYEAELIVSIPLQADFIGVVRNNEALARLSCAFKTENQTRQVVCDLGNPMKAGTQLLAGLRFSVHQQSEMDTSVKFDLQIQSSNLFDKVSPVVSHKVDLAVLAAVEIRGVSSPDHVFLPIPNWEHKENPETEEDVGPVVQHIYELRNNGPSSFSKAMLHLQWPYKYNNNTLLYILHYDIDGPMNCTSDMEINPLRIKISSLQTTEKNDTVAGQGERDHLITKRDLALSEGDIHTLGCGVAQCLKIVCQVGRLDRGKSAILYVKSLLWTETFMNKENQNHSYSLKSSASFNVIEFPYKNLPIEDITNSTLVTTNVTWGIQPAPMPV
T2 sequence (P05106 27-718, chain 2 of 2): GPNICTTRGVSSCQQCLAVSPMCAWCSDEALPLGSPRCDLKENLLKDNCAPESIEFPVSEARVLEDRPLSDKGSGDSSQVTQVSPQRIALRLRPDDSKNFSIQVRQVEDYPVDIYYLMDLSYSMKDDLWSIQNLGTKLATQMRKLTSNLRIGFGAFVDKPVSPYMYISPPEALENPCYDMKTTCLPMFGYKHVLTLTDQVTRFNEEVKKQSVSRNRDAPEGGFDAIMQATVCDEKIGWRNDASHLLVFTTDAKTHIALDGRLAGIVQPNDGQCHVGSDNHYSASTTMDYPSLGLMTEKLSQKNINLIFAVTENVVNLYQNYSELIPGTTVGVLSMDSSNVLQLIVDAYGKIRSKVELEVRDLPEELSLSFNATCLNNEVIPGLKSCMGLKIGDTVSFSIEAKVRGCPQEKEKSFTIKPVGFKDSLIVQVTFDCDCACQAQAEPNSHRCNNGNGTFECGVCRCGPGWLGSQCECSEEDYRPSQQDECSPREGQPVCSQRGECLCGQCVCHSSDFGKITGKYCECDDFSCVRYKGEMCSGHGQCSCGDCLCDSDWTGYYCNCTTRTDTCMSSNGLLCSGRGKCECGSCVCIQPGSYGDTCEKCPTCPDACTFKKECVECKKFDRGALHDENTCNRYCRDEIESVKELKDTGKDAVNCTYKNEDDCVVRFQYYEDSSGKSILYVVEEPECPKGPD
Text: as §1, with “Therefore,” for “Integrin αvβ3 is a key receptor for ANGPTL3-FLD to act on podocytes and mediate podocyte damage. Therefore,”
1. Plot a Curve of the Binding of Integrin αvβ3/ANGPTL3 [0093] […]

## Negative Control Supernatant
[1]
  OD 450: 0.195 OD450

## B1
[2]
  Kd: 84.8 nM
  koff: 0.00142 s⁻¹
  kon: 16700 M⁻¹ s⁻¹
ANGPTL3-FLD-biotin
  EC50: 1.57 µg/mL

## B2
[3]
  EC50 (read off the curve): ~0.01 µg/mL

— patent US20240092884A1 (CHILDREN S HOSPITAL OF FUDAN UNIVERSITY, published 2024)
